B1: hu_uKHC (1-337H) motor domain (SEQ ID NO:17) (protein)
chain: MADLAECNIKVMCRFRPLNESEVNRGDKYIAKFQGEDTVVIASKPYAFDRVFQSSTSQEQVYNDCAKKIVKDVLEGYNGTIFAYGQTSSGKTHTMEGKLHDPEGMGIIPRIVQDIFNYIYSMDENLEFHIKVSYFEIYLDKIRDLLDVSKTNLSVHEDKNRVPYVKGCTERFVCSPDEVMDTIDEGKSNRHVAVTNMNEHSSRSHSIFLINVKQENTQTEQKLSGKLYLVDLAGSEKVSKTGAEGAVLDEAKNINKSLSALGNVISALAEGSTYVPYRDSKMTRILQDSLGGNCRTTIVICCSPSSYNESETKSTLLFGQRAKTIKNTVCVNVELTAVDKLAAALEHHHHHH
B2: KIF14 motor domain V342-K720 (SEQ ID NO:4) (protein)
chain: MVQNTSAGKDPLKVENSQVTVAVRVRPFTKREKIEKASQVVFMSGKEITVEHPDTKQVYNFIYDVSFWSFDECHPHYASQTTVYEKLAAPLLERAFEGFNTCLFAYGQTGSGKSYTMMGFSEEPGIIPRFCEDLFSQVARKQTQEVSYHIEMSFFEVYNEKIHDLLVCKDENGQRKQPLRVREHPVYGPYVEALSMNIVSSYADIQSWLELGNKQRATAATGMNDKSSRSHSVFTLVMTQTKTEFVEGEEHDHRITSRINLIDLAGSERCSTAHTNGDRLKEGVSINKSLLTLGKVISALSEQANQRSVFIPYRESVLTWLLKESLGGNSKTAMIATISPAASNIEETLSTLRYANQARLIVNIAKVNEDMNAKLIRELKLEHHHHHHHHHHHH
B3: KIF14 motor domain V354-K720 (SEQ ID NO:6) (protein)
chain: MVENSQVTVAVRVRPFTKREKIEKASQVVFMSGKEITVEHPDTKQVYNFIYDVSFWSFDECHPHYASQTTVYEKLAAPLLERAFEGFNTCLFAYGQTGSGKSYTMMGFSEEPGIIPRFCEDLFSQVARKQTQEVSYHIEMSFFEVYNEKIHDLLVCKDENGQRKQPLRVREHPVYGPYVEALSMNIVSSYADIQSWLELGNKQRATAATGMNDKSSRSHSVFTLVMTQTKTEFVEGEEHDHRITSRINLIDLAGSERCSTAHTNGDRLKEGVSINKSLLTLGKVISALSEQANQRSVFIPYRESVLTWLLKESLGGNSKTAMIATISPAASNIEETLSTLRYANQARLIVNIAKVNEDMNAKLIRELKLEHHHHHHHHHHHH
B4: hu_CENP-E (1-340H) motor domain (SEQ ID NO:19) (protein)
chain: MAEEGAVAVCVRVRPLNSREESLGETAQVYWKTDNNVIYQVDGSKSFNFDRVFHGNETTKNVYEEIAAPIIDSAIQGYNGTIFAYGQTASGKTYTMMGSEDHLGVIPRAIHDIFQKIKKFPDREFLLRVSYMEIYNETITDLLCGTQKMKPLIIREDVNRNVYVADLTEEVVYTSEMALKWITKGEKSRHYGETKMNQRSSRSHTIFRMILESREKGEPSNCEGSVKVSHLNLVDLAGSERAAQTGAAGVRLKEGCNINRSLFILGQVIKKLSDGQVGGFINYRDSKLTRILQNSLGGNAKTRIICTITPVSFDETLTALQFASTAKYMKNTPYVNEVSTVDKLAAALEHHHHHH
B5: hu_KIF1B (1-350H) motor domain (SEQ ID NO:21) (protein)
chain: MSGASVKVAVRVRPFNSRETSKESKCIIQMQGNSTSIINPKNPKEAPKSFSFDYSYWSHTSPEDPCFASQNRVYNDIGKEMLLHAFEGYNVCIFAYGQTGAGKSYTMMGKQEESQAGIIPQLCEELFEKINDNCNEEMSYSVEVSYMEIYCERVRDLLNPKNKGNLRVREHPLLGPYVEDLSKLAVTSYTDIADLMDAGNKARTVAATNMNETSSRSHAVFTIVFTQKKHDNETNLSTEKVSKISLVDLAGSERADSTGAKGTRLKEGANINKSLTTLGKVISALAEVDNCTSKSKKKKKTDFIPYRDSVLTWLLRENLGGNSRTAMVAALSPADINYDETLSTLRYADRVDKLAAALEHHHHHH
B6: KIF14 motor domain V354-D710 (SEQ ID NO:7) (protein)
chain: MVENSQVTVAVRVRPFTKREKIEKASQVVFMSGKEITVEHPDTKQVYNFIYDVSFWSFDECHPHYASQTTVYEKLAAPLLERAFEGFNTCLFAYGQTGSGKSYTMMGFSEEPGIIPRFCEDLFSQVARKQTQEVSYHIEMSFFEVYNEKIHDLLVCKDENGQRKQPLRVREHPVYGPYVEALSMNIVSSYADIQSWLELGNKQRATAATGMNDKSSRSHSVFTLVMTQTKTEFVEGEEHDHRITSRINLIDLAGSERCSTAHTNGDRLKEGVSINKSLLTLGKVISALSEQANQRSVFIPYRESVLTWLLKESLGGNSKTAMIATISPAASNIEETLSTLRYANQARLIVNIAKVNEDLEHHHHHHHHHHHH
B7: hu_nKHC (1-340H) motor domain (SEQ ID NO:18) (protein)
chain: MAETNNECSIKVLCRFRPLNQAEILRGDKFIPIFQGDDSVVIGGKPYVFDRVFPPNTTQEQVYHACAMQIVKDVLAGYNGTIFAYGQTSSGKTHTMEGKLHDPQLMGIIPRIARDIFNHIYSMDENLEFHIKVSYFEIYLDKIRDLLDVTKTNLSVHEDKNRVPFVKGCTERFVSSPEEILDVIDEGKSNRHVAVTNMNEHSSRSHSIFLINIKQENMETEQKLSGKLYLVDLAGSEKVSKTGAEGAVLDEAKNINKSLSALGNVISALAEGTKSYVPYRDSKMTRILQDSLGGNCRTTMFICCSPSSYNDAETKSTLMFGQRAKTIKNTASVNLELTAEVDKLAAALEHHHHHH
B8: hu-KSP (1-367H) motor domain (SEQ ID NO:15) (protein)
chain: MASQPNSSAKKKEEKGKNIQVVVRCRPFNLAERKASAHSIVECDPVRKEVSVRTGGLADKSSRKTYTFDMVFGASTKQIDVYRSVVCPILDEVIMGYNCTIFAYGQTGTGKTFTMEGERSPNEEYTWEEDPLAGIIPRTLHQIFEKLTDNGTEFSVKVSLLEIYNEELFDLLNPSSDVSERLQMFDDPRNKRGVIIKGLEEITVHNKDEVYQILEKGAAKRTTAATLMNAYSSRSHSVFSVTIHMKETTIDGEELVKIGKLNLVDLAGSENIGRSGAVDKRAREAGNINQSLLTLGRVITALVERTPHVPYRESKLTRILQDSLGGRTRTSIIATISPASLNLEETLSTLEYAHRAKNILNKPEVNQHHHHHH
B9: KIF14 motor domain V342-D710 (SEQ ID NO:5) (protein)
chain: MVQNTSAGKDPLKVENSQVTVAVRVRPFTKREKIEKASQVVFMSGKEITVEHPDTKQVYNFIYDVSFWSFDECHPHYASQTTVYEKLAAPLLERAFEGFNTCLFAYGQTGSGKSYTMMGFSEEPGIIPRFCEDLFSQVARKQTQEVSYHIEMSFFEVYNEKIHDLLVCKDENGQRKQPLRVREHPVYGPYVEALSMNIVSSYADIQSWLELGNKQRATAATGMNDKSSRSHSVFTLVMTQTKTEFVEGEEHDHRITSRINLIDLAGSERCSTAHTNGDRLKEGVSINKSLLTLGKVISALSEQANQRSVFIPYRESVLTWLLKESLGGNSKTAMIATISPAASNIEETLSTLRYANQARLIVNIAKVNEDLEHHHHHHHHHHHH
B10: hu_MKLP-1 (1-433H) motor domain (SEQ ID NO:20) (protein)
chain: MARAKTPRKPTVKKGSQTNLKDPVGVYCRVRPLGFPDQECCIEVINNTTVQLHTPEGYRLNRNGDYKETQYSFKQVFGTHTTQKELFDVVANPLVNDLIHGKNGLLFTYGVTGSGKTHTMTGSPGEGGLLPRCLDMIFNSIGSFQAKRYVFKSNDRNSMDIQCEVDALLERQKREAMPNPKTSSSKRQVDPEFADMITVQEFCKAEEVDEDSVYGVFVSYIEIYNNYIYDLLEEVPFDPIKPKPPQSKLLREDKNHNMYVAGCTEVEVKSTEEAFEVFWRGQKKRRIANTHLNRESSRSHSVFNIKLVQAPLDADGDNVLQEKEQITISQLSLVDLAGSERTNRTRAEGNRLREAGNINQSLMTLRTCMDVLRENQMYGTNKMVPYRDSKLTHLFKNYFDGEGKVRMIVCVNPKAEDYEENLQVMRFAEVTQEVDKLAAALEHHHHHH
B11: hu_KIF3A (1-350H) motor domain (SEQ ID NO:16) (protein)
chain: MPINKSEKPESCDNVKVVVRCRPLNEREKSMCYKQAVSVDEMRGTITVHKTDSSNEPPKTFTFDTVFGPESKQLDVYNLTARPIIDSVLEGYNGTIFAYGQTGTGKTFTMEGVRAIPELRGIIPNSFAHIFGHIAKAEGDTRFLVRVSYLEIYNEEVRDLLGKDQTQRLEVKERPDVGVYIKDLSAYVVNNADDMDRIMTLGHKNRSVGATNMNEHSSRSHAIFTITIECSEKGIDGNMHVRMGKLHLVDLAGSERQAKTGATGQRLKEATKINLSLSTLGNVISALVDGKSTHVPYRNSKLTRLLQDSLGGNSKTMMCANIGPADYNYDETISTLRYANRAKNIKNKARVDKLAAALEHHHHHH

The data set concerns the target taxol-stabilized microtubules.
In turn, B1 yielded a K1/2 (MT) of 0.34 µM.
Take B2: the K1/2 (MT) amounted to 10.6 µM, the “Km (Michaelis-Menten fit of microtubule utilization)” value is “a Km of 2.6+/-1.1 (s.d.)”, the k(obs) (min-1) at MT 0 micromolar was determined as 0 min⁻¹ and the k(obs) (min-1) at MT 0.25 micromolar came out at 0.36 min⁻¹. The k(obs) (min-1) at MT 0.5 micromolar stood at 1.57 min⁻¹, the k(obs) (min-1) at MT 1 micromolar came to 2.79 min⁻¹, the k(obs) (min-1) at MT 2.5 micromolar is 9.1 min⁻¹ and the k(obs) (min-1) at MT 5 micromolar is 13.2 min⁻¹. Besides, the “kcat (Michaelis-Menten fit of microtubule utilization)” value is recorded as “a kcat of 21.3+/-3.5 (s.d.)”; the “kcat/Km under optimized conditions (MES, pH 6.0, 40 mM KCl)” value was “compared to 13.2 under optimized conditions (MES, pH 6.0,40 mM KCl)”; the “kcat/Km under unoptimized conditions (K-PIPES, pH 6.7, 90 mM KCl)” value is “the kcat/Km for the V342-K720 motor domain (SEQ ID NO:4) under unoptimized conditions (K-PIPES, pH 6.7, 90 mM KCl) was 224”; the “microtubule-dependent ATP hydrolysis activity” value is recorded as “All of the KIF14 MD proteins showed microtubule-dependent ATP hydrolysis activity”.
The protein B3 came in with a k(obs) (min-1) at MT 0 micromolar of 0 min⁻¹, a k(obs) (min-1) at MT 0.25 micromolar of 0.73 min⁻¹, a k(obs) (min-1) at MT 0.5 micromolar of 1.49 min⁻¹ and a k(obs) (min-1) at MT 1 micromolar of 4.12 min⁻¹. Moreover, the k(obs) (min-1) at MT 2.5 micromolar stood at 9.29 min⁻¹, the k(obs) (min-1) at MT 5 micromolar worked out at 18.3 min⁻¹ and the “microtubule-dependent ATP hydrolysis activity” value is “All of the KIF14 MD proteins showed microtubule-dependent ATP hydrolysis activity”.
Consider B4, for which the K1/2 (MT) was 1.6 µM.
As to B5, the K1/2 (MT) was 0.035 µM.
In turn, B6 yielded a k(obs) (min-1) at MT 0 micromolar of 0 min⁻¹, a k(obs) (min-1) at MT 0.25 micromolar of 0.39 min⁻¹, a k(obs) (min-1) at MT 0.5 micromolar of 1.07 min⁻¹ and a k(obs) (min-1) at MT 1 micromolar of 1.87 min⁻¹. Besides, the k(obs) (min-1) at MT 2.5 micromolar came out at 5.79 min⁻¹, the k(obs) (min-1) at MT 5 micromolar was 10.2 min⁻¹ and the “microtubule-dependent ATP hydrolysis activity” value was “All of the KIF14 MD proteins showed microtubule-dependent ATP hydrolysis activity”.
For B7, the K1/2 (MT) was found to be 1.1 µM.
On to B8, for which the K1/2 (MT) was determined as 0.3 µM.
B9 gave a k(obs) (min-1) at MT 0 micromolar of 0 min⁻¹, a k(obs) (min-1) at MT 0.25 micromolar of 0.03 min⁻¹, a k(obs) (min-1) at MT 0.5 micromolar of 0.73 min⁻¹ and a k(obs) (min-1) at MT 1 micromolar of 0.79 min⁻¹. The k(obs) (min-1) at MT 2.5 micromolar is 3.02 min⁻¹, the k(obs) (min-1) at MT 5 micromolar was 5.91 min⁻¹ and the “microtubule-dependent ATP hydrolysis activity” value is recorded as “All of the KIF14 MD proteins showed microtubule-dependent ATP hydrolysis activity”.
Turning to B10, the K1/2 (MT) stood at 0.24 µM.
The protein B11 showed a K1/2 (MT) of 0.17 µM.
